A word on the Kd: it is the concentration at which binding is half-saturated.

The target in test [1] is … peptide HLA-E single chain trimer (soluble, biotinylated) (human, biotin (AviTag)). Description: SPR. The conditions noted are these: both partners purified.
Test [2] deals with WN peptide (…) HLA-E single chain trimer (soluble, biotinylated) (human, biotin (AviTag)). Briefly: SPR; steady state, Biacore T200, biotinylated pMHC SCT immobilised at about 400 RU on a Series S SA chip, CD94/NKG2x as analyte 0.1-102.4 μM, 10 μL/min, 25 °C, HBS-EP+; reference HLA-DR401; approximate KD by Biacore software. The conditions noted are these: both partners purified. In general terms: In SPR one partner is held on a chip, and binding of the other changes the refractive index at the surface.

B1: CD94/NKG2C single-chain fusion protein (human NKG2C ectodomain - GGSGGS - human CD94 ectodomain), produced in Hi5 cells for SPR (receptor)
chain: not shown
notes: also called CD94/NKG2x
Regarding B1, the Kd was ~21.4 µM in test [1] and ~17.4 µM in test [2].

B2: CD94/NKG2A single-chain fusion protein (human NKG2A ectodomain - GGSGGS - human CD94 ectodomain), produced in Hi5 cells for SPR (receptor)
chain: not shown
notes: also called CD94/NKG2x
Take B2: the figures for the Kd in test [1] and in test [2] were ~8.2 µM and ~41.5 µM, respectively.

The values are drawn from paper PMC10412585, “High-throughput characterization of HLA-E-presented CD94/NKG2x ligands reveals peptides which modulate NK cell activation” (Nature Communications, 2023).
